Experimental findings from patent publication US7807153 (Genentech, dated 2010) are described below.

The target of this assay is T1, DR4 expressed in transfected CHO cells (UniProt O00220 24-468, limits assumed).
T1 construct: whole, on cells; also called DR4-transfected CHO cells; DR4-transfected cells
The assay is described as follows: immunohistochemistry on sections of transfected CHO cells. How it is done: CHO cells were transfected with vector alone or vector containing the gene for Apo-2 or DR4. The transfected cells were removed from culture plates, pelleted, and washed twice with PBS. The pellets were then resuspended in O.C.T. (Fisher), flash frozen in isopentain and LN_2, and later sectioned using standard protocols. Staining of the sectioned cells was performed using a Vectastain Elite ABC kit. […] The secondary antibody employed was either a biotinylated anti-c-myc 9E10 antibody or anti-Penta His antibody (Qiagen) followed by biotinylated anti-mouse IgG.

B1: single chain antibody (scFv) fragment 16E2 (scFv)
scFv: EVQLVQSGGGVERPGGSLRLSCAASGFTFDDYGMSWVRQAPGKGLEWVSGINWNGGSTGYADSVKGRVTISRDNAKNSLYLQMNSLRAEDTAVYYCAKILGAGRGWYFDLWGKGTTVTVSSGGGGSGGGGSGGGGSSELTQDPAVSVALGQTVRITCQGDSLRSYYASWYQQKPGQAPVLVIYGKNNRPSGIPDRFSGSSSGNTASLTITGAQAEDEADYYCNSRDSSGNHVVFGGGTKLTVLGAAAHHHHHHGAAEQKLISEEDLNGAA
notes: Purified by IMAC from E. coli; also called 16E2 antibody; anti-Apo-2 antibody 16E2
With B1, the binding result is given as “no binding”.
